Measured values taken from paper PMC3942486, “The Ansamycin Antibiotic, Rifamycin SV, Inhibits BCL6 Transcriptional Repression and Forms a Complex with the BCL6-BTB/POZ Domain” (PLoS ONE, 2014).

Target: BCL6-POZ domain (residues 7 to 128 of human BCL6, C8Q, C67R, C84N) (human, UniProt P41182 7-128, cysteine8 mutated to glutamine | cysteine67 mutated to arginine | cysteine84 …)
Experiment: fluorescence polarisation; fixed concentration of BODIPY TMR-labelled SMRT peptide, increasing concentration of BCL6-POZ domain; PBS, 0.05% (v/v) Triton X-100, 0.1 mg/mL BSA; room temperature; triplicate; one-site binding (hyperbola) fit
Details: both partners purified

Kd | Binder
154 µM | LVATVKEAGRSIXEIPR (2-naphthylalanine in place of histidine1426; BODIPY TMR dye coupled via the amino-terminal cysteine) [2-naphthyl-SMRT peptide, labelled with BODIPY TMR]
11 µM | LVATVKEAGRSIXEIPR (1-naphthylalanine in place of histidine1426; BODIPY TMR dye coupled via the amino-terminal cysteine) [1-naphthyl-SMRT peptide, labelled with BODIPY TMR]
